1 protein from paper PMC12606367, “CryoEM and computational modeling structural insights into the pH regulator NBCn1” (Nature Communications, 2025) can be followed below.

In general, stoichiometry N refers to a count of units in the complex or per binding partner.

The data set concerns the molecule itself. Description: cryo-EM structure; purified NBCn1 (~1.5 mg/ml) in 20 mM Tris-HCl, 115 mM NaCl, 25 mM NaHCO3, pH 7.4, 0.01% LMNG; dimer peak of Superose 6 put on grids; three dimeric states (3.5, 3.4, 3.3 Å), final map 3.3 Å.

B1: N-terminally Strep(II)-tagged wt-human NBCn1-A (natural protein, UniProt Q9Y6M7-1 1-1214, looked up)
chain: MERFRLEKKLPGPDEEAVVDLGKTSSTVNTKFEKEELESHRAVYIGVHVPFSKESRRRHRHRGHKHHHRRRKDKESDKEDGRESPSYDTPSQRVQFILGTEDDDEEHIPHDLFTEMDELCYRDGEEYEWKETARWLKFEEDVEDGGDRWSKPYVATLSLHSLFELRSCILNGTVMLDMRASTLDEIADMVLDNMIASGQLDESIRENVREALLKRHHHQNEKRFTSRIPLVRSFADIGKKHSDPHLLERNGEGLSASRHSLRTGLSASNLSLRGESPLSLLLGHLLPSSRAGTPAGSRCTTPVPTPQNSPPSSPSISRLTSRSSQESQRQAPELLVSPASDDIPTVVIHPPEEDLEAALKGEEQKNEENVDLTPGILASPQSAPGNLDNSKSGEIKGNGSGGSRENSTVDFSKVDMNFMRKIPTGAEASNVLVGEVDFLERPIIAFVRLAPAVLLTGLTEVPVPTRFLFLLLGPAGKAPQYHEIGRSIATLMTDEIFHDVAYKAKDRNDLLSGIDEFLDQVTVLPPGEWDPSIRIEPPKSVPSQEKRKIPVFHNGSTPTLGETPKEAAHHAGPELQRTGRLFGGLILDIKRKAPFFLSDFKDALSLQCLASILFLYCACMSPVITFGGLLGEATEGRISAIESLFGASLTGIAYSLFAGQPLTILGSTGPVLVFEKILYKFCRDYQLSYLSLRTSIGLWTSFLCIVLVATDASSLVCYITRFTEEAFAALICIIFIYEALEKLFDLGETYAFNMHNNLDKLTSYSCVCTEPPNPSNETLAQWKKDNITAHNISWRNLTVSECKKLRGVFLGSACGHHGPYIPDVLFWCVILFFTTFFLSSFLKQFKTKRYFPTKVRSTISDFAVFLTIVIMVTIDYLVGVPSPKLHVPEKFEPTHPERGWIISPLGDNPWWTLLIAAIPALLCTILIFMDQQITAVIINRKEHKLKKGAGYHLDLLMVGVMLGVCSVMGLPWFVAATVLSISHVNSLKVESECSAPGEQPKFLGIREQRVTGLMIFILMGLSVFMTSVLKFIPMPVLYGVFLYMGVSSLKGIQLFDRIKLFGMPAKHQPDLIYLRYVPLWKVHIFTVIQLTCLVLLWVIKVSAAAVVFPMMVLALVFVRKLMDLCFTKRELSWLDDLMPESKKKKEDDKKKKEKEEAERMLQDDDDTVHLPFEGGSLLQIPVKALKYSPDKPVSVKISFEDEPRKKYVDAETSL
modifications: N-acetylglucosamine on Asn776, Asn786 and Asn796; disulfide bonds Cys766-Cys814 and Cys768-Cys802
notes: human NBCn1-A (SLC4A7), NP_003606.3, 1214 aa, full length; the atomic model holds residues 581 to 1207; Homodimer in the cryoEM map; only residues 581-1207 (transmembrane domain and C-terminal helix) were built, the cytoplasmic N-terminal part is not in the model; also called SLC4A7; full-length human NBCn1; source: HEK293 cells, transfected (pcDNA3.1(+)), purified (StrepTrap HP, Superose 6 SEC, …)
Consider B1, for which the “stoichiometry N” value was 2.
